Source: patent US20120164066A1 (University of Pennsylvania, published 2012)

Key:
[1] = biological target: T1, Her2/neu receptor expressed on cells (T6-17 cells; SKBR3 cells) (UniProt P04626 23-1255); assay: FACS on T6-17 cells, 45 min on ice, rabbit anti-His antibody and FITC anti-rabbit antibody
T1 construct: whole, on cells; also called p185 HER2/neu
Protocol: Experiments were conducted to determine whether the ALZ construct (SEQ ID NO. 5) could bind to T6-17 cells, which express the Her2/neu receptor. T6-17 cells were incubated with (dark line) or without (light line) ALZ for 45 min on ice and then with a rabbit anti-His antibody followed by a FITC-labeled anti-rabbit antibody. Other antigen-binding proteins were tested in this manner also.

[2] = biological target: T2, FcγIIIB Fc receptor (UniProt O75015 17-200); assay: Biacore
T2 construct: The form used in the Biacore experiments is not described; also called FcγIIIB receptor
Protocol: In some cases, antigen-binding protein can interact with an Fc receptor, which may facilitate cell-mediated cytotoxicity. Biacore experiments were conducted to determine whether the antigen-binding protein AHNP-CH2-mimic could bind to the FcγIIIB Fc receptor. […] The interaction between AFc, an antigen binding protein consisting of AHNP linked to the Fc region of an IgG1 antibody, and FcγIIIB was examined for comparative purposes. […] Since FcγIIIB is known to have low affinity to IgG1, the level of affinity observed for AHNP-CH2-mimic is very encouraging. Furthermore, a synthetic CH2-mimic peptide was also observed to compete with the monoclonal antibody 4D5 (IgG1) for binding to the FcγIIIB receptor when analyzed in Biacore experiments. Despite the observed competition for FcγIIIB, direct binding between the CH2-mimic peptide alone and FcγIIIB was not detected, possibly due to the inability for the interaction to be detected by Biacore.

T2 sequence (O75015 17-200): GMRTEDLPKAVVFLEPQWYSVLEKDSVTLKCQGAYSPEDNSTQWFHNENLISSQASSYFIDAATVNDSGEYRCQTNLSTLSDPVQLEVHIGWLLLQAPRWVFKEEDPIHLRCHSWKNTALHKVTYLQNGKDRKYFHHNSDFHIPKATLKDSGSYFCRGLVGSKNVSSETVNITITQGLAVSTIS

| Binder | binding result [1] | binding result [2] |
| --- | --- | --- |
| ALZ (designed binder, AHNP on the N-terminus of the leucine zipper domain of human FOXP3, with a His-tag; The LZ domain is said to form dimers and tetramers; also called ALZ construct) MAFCDGFYACYMDVGGGGGSMASDFLKHCQADHLLDEKGRAQCLLQREMVQSLEQQLVLEKEKLSAMQAHLAGKMALTKASSVASSDKLEHHHHHH | binds |  |
| FPAPLAPGGLYLGG [synthetic CH2-mimic peptide] |  | no binding |
